From the DeepSol protein solubility set

Test: soluble on expression in E. coli; label from the status in PepcDB or PDB records

Soluble on expression in E. coli, not soluble:
MGSDKIHHHHHHMPAVVVREYARLTTAPLPQNTLDAAHISPSAFSWLVKLGQQFKANGLQLLELDDQQWLRLDNYVGVLESPCGQVIEILPKHRVEGECINSARKLLRKLILNALQLKQRETEYTDIERFDAPLTEWLMAQFLTELDSVIKRGMRFDYQRIEESQRFLRGQLDVVKQLRQPAGREHIFNIRHDIFTADRAENRLLKTALLRVCKTTQDNDNWRLAHELQSLLHELPTSTDIQADFTTWRSDRLMAHYQAIKPWCEFVLSQHVPLAVQGLWQGISMLFPMERLFESYVAAELDAAVQRMLGVKGEVRTQLASKYLCKHQGKDFFQLQPDLQLKLGADHWILDTKWKLLDASDKENKYGLSQQDFYQLFAYGQTYLGGDGTLVLIYPAWHKFPAGTYLGEFRFNDKLTLKVLPFDLDAQNAAKDLISKLQQGVKQSLPS, MGSDKIHHHHHHMPECSKAWAVREEPELLTDRRHTDDGGEFVSQPRIIEPAIRTLIDTPLRVGESPTWDERTGDLWFVDILAPAIFCLSPSGKLQRFDMPAQIGCLGLCQSNLIVAALKTGVHLLNPQNGELELLCDPDEGRADSRLNDGKVGPDGHFWVGTRDEADVPTGNARLYRVSSSGHVERFIDGDMLTSNGLAWSPDETRMYHSDSSGLLLQVFDFDVQTGRLGPAKRLHDFQPDEGRPDGAATDSEGCYWSAGVQAGRLNRFTPDGELFEIYKMPFKGPTMPCFGGPELKTLYVTSLVTDTNGVATSGTLVAFDAPVAGAPIHKFPL, MGSDKIHHHHHHMPEEKQKKSVLEKALKRIEENFGKGSIMILGDETQVQPVEVIPTGSLAIDIATGVGGYPRGRIVEIFGQESSGKTTLALHAIAEAQKMGGVAAFIDAEHALDPVYAKNLGVDLKSLLISQPDHGEQALEIVDELVRSGVVDLIVVDSVAALVPRAEIEGAMGDMQVGLQARLMSQALRKIAGSVNKSKAVVIFTNQIRMKIGVMFGSPETTTGGLALKFYATMRMEVRRGEPIKEGKDVIGNVISVKIVKNKVAPPFKTAQTYIIYGKGIDREYELFNIAVNEGIVDRKGSWYYYTTLKGEEVSLGQGSSNAVQFLKDNPEIAGEIERRIREKYGLLSVEKEEQRKEKKSSGEEAS, MGSDKIHHHHHHMPELTEFQKKRLENIKRNNDLLKKLHLSGVASQIKHEAGVLEKSRAPAKKKQKTTNTRATKSASPTLPTRRSRRLRGESADDVKGIPNVNDNQLLKMGSPDGQDKNFIDAIKEKPVIGDVKLSDLIKDEDESALLEKFKRFNNGNFSSGDFFEEIKKRQGDVTGMDEFDLDLYDVFQPNEIKITYERISATYFHPAMEKKLIIAGDTSGTVGFWNVRDEPLADSEEDRMEEPDITRVKLFTKNVGRIDCFPADTSKILLTSYDGSIRSVHLNNLQSEEVLTLKNEYDDSLGISDCQFSYENPNVLFLTTLGGEFTTFDTRVKKSEYNLRRLADKKIGSMAINPMRPYEIATGSLDRTLKIWDTRNLVKKPEWSQYEDYPSHEIVSTYDSRLSVSAVSYSPTDGTLVCNGYDDTIRLFDVKSRDHLSAKLEPKLTIQHNCQTGRWTSILKARFKPNKNVFAIANMKRAIDIYNSEGQQLAHLPTATVPAVISWHPLRNWIAGGNSSGKIFLFTDDSGTIKQEE, MGSDKIHHHHHHMPENDFFAGIDAQLDTWEFRTLADAFKPRPPLQYAITGLFTLPSLTIVFGAPGTLKSMLLGSAALHVAGGLPWLGRKVKAFPTMWLDMDNGKRRTDERFEALARHLGLNEGTPFFYISMPTPMFNAGDTGDTEAMVNRMISRGIKLLFIDNLGLISPGADENSDAMVKVMGNLRLLAERTDAAVVIIHHQRKKSKQTQTARTGETLRGHSSIEASLDLALLVEREFDSDIITVHSTKTRDTEVRPFAAEWRYEHKPGTDELETAGFVSAEGENSSETVLEKAIIETVSSNALINQTKLKDDVMKLTGIGRNQVINMIRALEVRKALNVKPGSNNEKLYYIE, MGSDKIHHHHHHMPFDPKIRGPLDVRPLLQLMSAGSWQVELAHERDCHLVIWITRGQGRVLLDGQCRGFGPHTALCIPARTLFSLELGRQCIGQVLRIGEDIPCGLPETPMQIRINDMQEQGRINALFDAALREQQVADDHTAKAITSYADLVGIHLQRLWVRAPENRKPTAARRLCRAYCARLAQDAEGAFNMAGHASELGVTPTHLTRVCKQETGKTAAALLTERQLHAARSLLASTRLPMRDIAQSLGFGSAAYFTRFITQHTGSTPSDLRKKAHGAQLASGRNP, MGSDKIHHHHHHMPFDQGGIKMKPLLQTVDLKKYFPQGKRILKAVDGISIEIKEGETLGLVGESGCGKSTLGRTILKLLRPDGGKIFFEGKDITNLNDKEMKPYRKKMQIIFQDPLGSLNPQMTVGRIIEDPLIIHKIGTKKERRKRVEELLDMVGIGREFINSFPHEFSGGQQQRIGIARALALNPKFIVCDEPVSALDVSIQAQIIDLLEEIQQKMGISYLFIAHNLAVVEHISHKVAVMYLGKIVEYGDVDKIFLNPIHPYTRALLKSVPKIPWDGQKQRFYSLKGELPSPIDLPKGCRFQTRCTEKKAICFEKEPELTEVEKNHFVSCHLVRSYRG, MGSDKIHHHHHHMPGSHNITKQTGASKMSSTRGAFFPDALMQQVKARFHHVDHDLDGRARLFFDNAGGSFRLKAAVDAYARIDALPDCPERIHERALDLQAIQSRGEDDVRTILNAQGGTVYASLTASGAMFDMVRAIMENVPGTNAVTTVLEHPSSYDAMTYYAERTGKTLRIAPSNPETGGVDVDAIVSLIDADTALLSVMFASNISGAKFDIEAIVARARQKKPGLFIVVDAVQHAPHGIIDLQRTPVDGINFAPYKFFGCRGSGISWLSPRAAALPHHRLAAKESGVWELGSPAPAQFAVVTSIVDYVKWIGRYFVDSDDRRTLFVEGMHRIELHERALLAALLDGCGGRRGLRSIDGVEVYWDHDDLTKRDLIVGIGFAHLEPTQAVREYEKHGVIVYERVASSLYSGRMLKSFRLAGAVRISPLHCHAPDDIARFLAITGTLAANR, MGSDKIHHHHHHMPHSVPPLTDIGPLPTASTVRTVVFSDFDETYLAHSGTPEQVRSRQALENYLEDAGERHGLLFGWVTGSSLSSVLGKARRHGLRFLPHFIACSLGTELHVISEAGIQPEPGWQRRMLTTGEHLEGLAEEAFRELRTRGVPLVPQSCRAPGSRVISYYYFAQDPERDARQLALIRRTADRLSLGVNLSRCNPAAGDPDDCYDVDFLPRDCGKRHIVEYICRLYAVSEADAFAFGDSGNDLEMLTAVGRGLLVGNCTEEARARYPQVSARSHADAILSELRGVLP, MGSDKIHHHHHHMPILLLAQSDAHLSLGAAQGPGAELDRRACEQLDIPVLRRPLGGGVVWVDPGQLNYFFIFPAAAGVRRAPELFDRIAPWVLAVHAHFGLEVEVRGGQDFWCRGRKIGGTGAASIGHSLVLGGSFILEAQWTSFADCVAAPSAGFRAWLKEALEEDLGSWSRLLGRVVGPEVVLDACPALLHAAGWDVVVTRPTEAERRAMTQVELEDVDWEQPVRRRVRAGIKLKAGAFLTEQHWPDGHWLRVWTENGTFRRIAGSAWSAGQGDTLTGLQPGSERFDERLREMAGAGAALWGERLSETAVWAD, MGSDKIHHHHHHMPLLDIRNLTIELNTNNTKVKVLEKVSLTLNAGEIHGLVGESGSGRSLLAKAILGALGPQWTVIADRLMLDGKNLLDMSPKQRRCLMGSDIAMIFQDPSGSLDPVKTIGSQLIESMTPNKAVAFWRRGKDTYLNALKWLHKVGIKNPKSLMSCYPWELSEGECQKVMIAMAIANRPKLLIADEPTNSVELNAQAQIFRLLSQLNQLQNVSILLISHELETLVQWCDHLTVLYGGQVMESGPTDEMIAHPFHPYTKALLKNLPDYTGKMRHKSYLPTLQGSSPSLHNMPAGCRLGPRCPEAQRNCVKQPALEHQKDRYFACHFPYLNEQDTDDDAIA, MGSDKIHHHHHHMPNPTRAFLLGPLLKGVSRSFYLTLRVLPAGMRDPIGLAYLLARAADTIADTSLIAPQRRLTLLLSLREQVNGATDDAALFQRMAAEVAGQQVQSDEKVLLESLGPALDVLSQLNEFDRKAVREIVSTLTEGMEFDLRTFPDERSGQIAALREYDELDRYTYLVAGCVGEFWTTMTYAHMPGTLKERADVMARRGVRFGKALQMTNVLRDCGKDLRIGRCYLPQTMLDRYGLSPQDLLRPDNSVRARPLMIELLRKTVDHFREALDYTLAIPASAVRLRLASLWPILIGLETLILLADNDAWLDPQKVSKVRRNKVYQIIASSLLLVPSNGLVRHAVERRIRQIEARF, MGSDKIHHHHHHMPQISVTILRGADTIGGSCVKINHGEDSIVLDYGAPLMDSTGVSIDADLASSPSMENGILLDIQQQDTRPPLAYLLSHAHPDHYGLLRSLPKSSNIYLSDSSYSMMTIGNLFYPEALRFSSLEQCRQFTPGKPFQVGPFTVTAFLMDHSAFGACSLLIEVDGKQVYYTGDFRGHGRKSQVSDYIYANVKQPDLMLLEGTTLNGGHSLQFPTEVSVEDAMVSALNEGDGPAFVSASGSNIDRIVSLYNATKRTGKELVIDLYQLYLLEALKKYSPSLPPHKNDHLKVIFPQFQLAIIKSEFGDDFLRYSNRHVNLSKLKGTNYVFRLSPYAMTPYLDSFKEKGVKPKLIYSMWLGYQSKQPKFAEIANKYQESWQYIHTSGHAYLEHLQSFAGNISPKVLVPIHTLNRDKFSSYFDNVRIVENGESIVCE, MGSDKIHHHHHHMPRITQEISYNCDYGDNTFNLAIDIGGTLAKVVFSPIHSNRLMFYTIETEKIDKFMELLHSIIKEHNNGCYRMTHIIATGGGAFKFYDLLYENFPQIKGISRFEEMEGLIHGLDFFIHEIPDEVFTYNDQDGERIIPTSSGTMDSKAIYPYLLVNIGSGVSILKVTEPNNFSRVGGSSLGGGTLWGLLSLITGAQTYDQMLDWAQEGDNSSVDMLVGDIYGTDYNKIGLKSSAIASSFGKVFQNRMTSNKSLENNENKLYSSHESIEKNNGQMFKNPDICKSLLFAISNNIGQIAYLQAKINNIQNIYFGGSYTRGHLTTMNTLSYAINFWSQGSKQAFFLKHEGYLGAMGAFLSASRHSSTKKTST, MGSDKIHHHHHHMPRKTTSLCRRILLENYTTRGEKMITNLSDRVFVIGTGTSANSVLVCGKKFCVLFDSTLFPEKARKIKEFAAEILGKEIAVVFNTHYHPDHTFGNEVFDRIISHSLTRKSLEEMDEEYIRKIGVEVSLKFPDETFSERENYRFGDIVVEAVHLGGHTPDSSIFVLKNEKIVICGDLLTTGIHAEIVTDSDLFGWIEALSEIEKIRADYFVPGHGKVGTIEDVRNMKDYISKVLRFREGSVKHSELLEDPNFINREHPELLTWGLENIIR, MGSDKIHHHHHHMPVIKFSYGDSMSTPLDSDLLRTFLAVADTGNLTRAADTVRRTQSAVSMQIRKLEELIGSALFERHSRGVILTDDGRRLADNARRIVSLLDDTAAAMRSPALEGSVRIGISEEYVNSTLPKALGAFAAIHPGVEVTVRQETSMANSAALAAGELDIAVVFEPGGRSRNEVLMVNPTVWATCDQHGAHERRPVPIATYTYAEGGWCDELARRSLQSRGIESRIAYVSRTSGGLIAALISGLAIAPLSRTAIPAGCRELTEEDGFGIIDMTNVVLRTRRGNRSPTVDAMADAIRRAFRAPAEKEKEEVRSTTTDG, MGSDKIHHHHHHMPVKLAQALANPLFPALDSALRSGRHIGLDELDNHAFLMDFQEYLEEFYARYNVELIRAPEGFFYLRPRSTTLIPRSVLSELDMMVGKILCYLYLSPERLANEGIFTQQELYDELLTLADEAKLLKLVNNRSTGSDVDRQKLQEKVRSSLNRLRRLGMVWFMGHDSSKFRITESVFRFGADVRAGDDPREAQRRLIRDGEAMPIENHLQLNDETEENQPDSGEEE
